Patent publication US20260227403A1 (HENRY M JACKSON FOUNDATION FOR THE ADVANCEMENT OF MILITARY …, published 2026)

Experiments:
Assay in all cases: ELISA: 1 µg peptide coated per well, 29E4 at 20 ng/mL, HRP goat anti-rabbit Ig 1:16,000, ABS 450 nm, duplicates [CONT. 1]
P48 = target: T1, P48
T1 construct: C-terminal truncation of P1
T1 peptide: QRQMSEPNIPFPPQG

P32 = target: T2, P32
T2 construct: C-terminal truncation of P1
T2 peptide: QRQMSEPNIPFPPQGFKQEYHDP

P37 = target: T3, P37
T3 construct: C-terminal truncation of P1
T3 peptide: QRQMSEPNIPFPPQGFKQ

binding result (P48): binds | binding result (P32): binds | binding result (P37): binds
B1: ETV1 rabbit monoclonal antibody (29E4) (antibody, V domains shown)
VH: QELEESGGDLVKPGASLTLTCTASGFFFSAENHICWVRQAPGKGLEWIGCVYIGSYVGGSGDPYYASWAKGRFTISKTSSTTVTLQMSSLTAADTATYFCARDLGSLWGPGTLVTVSS
VL: DVVMTQTASSVSAAVGGTVTIACQSSQSVYDNNNLAWFQQKPGQPPKRLIYSASTLASGVSSRFKGSGYGTQFTLTISDVQCDDAATYYCVGAFSGYIFVFGGGTEVVVK
notes: constant regions are not; also called 29E4 mAb; ETV1 29E4 mAb
